{
  "source": "paper doi:10.1101/276733",
  "about": "(bioRxiv, 2018)",
  "molecular_target": "the molecule itself",
  "test": "cryo-EM structure",
  "data": [
    {"protein": "Arf1-GTP (natural protein) not shown", "values": [
      {"measurement": "stoichiometry N", "value": 3}
    ]}
  ]
}
